Among the data in US8993839B2, “Plant-based production of heterologous proteins” (The Regents of the University of California, priority 2010, dated 2015) are Km and Vmax values, retold here.

Substrate in this data set: Cc1cc(=O)oc2cc(O[C@@H]3O[C@H](CO)[C@@H](O[C@@H]4O[C@H](CO)[C@@H](O)[C@H](O)[C@H]4O)[C@H](O)[C@H]3O)ccc12
In words: Michaelis-Menten kinetics of purified E1 (produced in P. pastoris, IMAC purified): cleavage of MUC to cellobiose and MU at various temperatures. The format is biochemical, Acidothermus cellulolyticus. The note with it: substrate MUC, from Lineweaver-Burk fit. Here is the method: Endoglucanase activity assay: Endoglucanase (E1) cleaves methylumbelliferyl-tagged cellobiose (MUC), releasing methylumbelliferone (MU). The MU fluorescence can be measured to determine E1 activity. The relative fluorescence readings of 0.024 to 3.0 μM MU solutions were used to create a linear standard curve. Samples containing E1 were diluted so the concentration of MU released fell within the standard curve. A 60 μl aliquot of diluted supernatant was added to 540 μl of acetate buffer (200 mM acetate, pH 5.5, 100 mM NaCl) and 200 μl of substrate (500 μM MUC). 200 μl of reaction was sampled at time zero and after 30 minutes and added to 800 μl of stop buffer (150 mM glycine, pH 10). The change in fluorescence over time was measured with a VersaFluor fluorometer (Bio-Rad). Fluorescence was converted to an activity, and the specific activity reported in the literature was used to approximate the concentration of E1 in Pichia supernatants. The Michaelis-Menten kinetic parameters of purified endoglucanase were determined. The E1 was produced in P. pastoris and purified by IMAC (immobilized metal affinity chromatography). E1 cleaves the substrate (MUC) into cellobiose and a fluorophore (MU), the concentration of which can be monitored over time. When run at 65° C. and […] substrate, this is the reaction used for the activity assay for E1 in plant extracts and yeast cultures. In this set of experiments, the substrate concentration was varied to determine the kinetic parameters at different temperatures. The rate for a reaction displaying Michaelis-Menten kinetics is shown in Equation 1. The rate depends on the catalysis rate (kcat), the total enzyme concentration (ET), the adsorption/desorption rates which are lumped into the Michaelis-Menten constant (KM), and the substrate concentration (S). At high substrate concentrations (S>>KM), the rate approaches a maximum, and […] is often written as Vmax. The parameters Vmax and KM can be determined experimentally by varying the substrate concentration (S) and measuring the reaction rate (V) at each concentration. Equation 1 can be rearranged as a linear equation (Equation 2). When the reciprocal of the reaction rate (V) is plotted against the reciprocal of the substrate concentration (S), a line fitting the data points can be used to determine KM/Vmax (the slope) and 1/Vmax (y-intercept). A Bradford assay was used to determine the E1 protein concentration in each sample, and this value of ET was used to calculate the kcat values in Table 1. Table 1 depicts a summary of Michaelis-Menten parameters for E1-catalyzed degradation of MUC to MU at various temperatures.

The mark [1] stands for this setting: other: 93 °C, uncertainty approaches 100%, not used further, 93.0 °C.

B1: Acidothermus cellulolyticus β-1,4-endoglucanase E1 (P. pastoris-produced) (Acidothermus cellulolyticus 11B) (protein)
chain: AGGGYWHTSGREILDANNVPVRIAGINWFGFETCNYVVHGLWSRDYRSMLDQIKSLGYNTIRLPYSDDILKPGTMPNSINFYQMNQDLQGLTSLQVMDKIVAYAGQIGLRIILDRHRPDCSGQSALWYTSSVSEATWISDLQALAQRYKGNPTVVGFDLHNEPHDPACWGCGDPSIDWRLAAERAGNAVLSVNPNLLIFVEGVQSYNGDSYWWGGNLQGAGQYPVVLNVPNRLVYSAHDYATSVYPQTWFSDPTFPNNMPGIWNKNWGYLFNQNIAPVWLGEFGTTLQSTTDQTWLKTLVQYLRPTAQYGADSFQWTFWSWNPDSGDTGGILKDDWQTVDTVKDGYLAPIKSSIFDPVGASASPSSQPSPSVSPSPSPSPSASRTPTPTPTPTASPTPTLTPTATPTPTASPTPSPTAASGARCTASYQVNSDWGNGFTVTVAVTNSGSVATKTWTVSWTFGGNQTITNSWNAAVTQNGQSVTARNMSYNNVIQPGQNTTFGFQASYTGSNAAPTVACAASHHHHHH
Usually Km stands for the concentration of substrate that gives half-maximal velocity. What is called Vmax is the rate approached at saturating substrate. Consider B1, for which the Km runs as follows: (other: 50 °C, 50.0 °C) 59 ± 3 µM; (other: 65 °C, 65.0 °C) 131 ± 4 µM; (other: 80 °C, 80.0 °C) 372 ± 50 µM; under setting [1], 576 ± 570 µM. In addition, the Vmax was determined as 0.083 µM/min (other: 50 °C, 50.0 °C); 0.242 µM/min (other: 65 °C, 65.0 °C); 0.523 µM/min (other: 80 °C, 80.0 °C); 0.229 µM/min under setting [1].
